The test deals with SARS-CoV-1 wild type RBD (SARS-CoV-1 (P59594 / NP_828851.1, …)). As to the kind of experiment: crystal structure.

B1: nanobody Nb70 (VHH with 6xHis tag, for crystal structural analysis) (VHH)
VHH: QVQLVESGGGLVQAGGSLRLSCVASGRTFSRYAMGWFRQAPGKEREFVAVIEWDGGTSYYVDSVKGRFTISRDNAKNTVYLQMNSLKPEDTAVYYCAAGGNQYYSATYSIWNEYDFWGQGTQVTVSS
Turning to B1, the binding result is recorded as “binds”.

(Values after doi:10.1101/2022.04.12.488087 (bioRxiv, 2022).)
